Experiments:
P3A-bH = target: T1, P3A-bH; assay: two-hybrid library CCNG1;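 further: natural log of median RNA to DNA barcode read ratio; higher means stronger binding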
T1 chain: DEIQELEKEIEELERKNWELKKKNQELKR

P4A-bH = target: T2, P4A-bH; assay: two-hybrid library CCNG1;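 further: natural log of median RNA to DNA barcode read ratio; higher means stronger binding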
T2 chain: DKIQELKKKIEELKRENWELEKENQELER

P5A-bH = target: T3, P5A-bH; assay: two-hybrid library CCNG1; details: mean of both orientations;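 further: natural log of median RNA to DNA barcode read ratio; higher means stronger binding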
T3 chain: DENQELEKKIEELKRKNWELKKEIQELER

P6A-bH = target: T4, P6A-bH; assay: two-hybrid library CCNG1;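 further: natural log of median RNA to DNA barcode read ratio; higher means stronger binding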
T4 chain: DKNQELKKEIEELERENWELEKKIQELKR

P7A-bH = target: T5, P7A-bH; assay: two-hybrid library CCNG1
T5 chain: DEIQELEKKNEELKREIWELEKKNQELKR

P8A-bH = target: T6, P8A-bH; assay: two-hybrid library CCNG1
T6 chain: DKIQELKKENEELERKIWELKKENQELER

P9A-bH = target: T7, P9A-bH; assay: two-hybrid library CCNG1
T7 chain: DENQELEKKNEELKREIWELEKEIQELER

P5mS = target: T8, P5mS; assay: two-hybrid library CCNG1
T8 chain: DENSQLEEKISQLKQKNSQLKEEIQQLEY

P6mS = target: T9, P6mS; assay: two-hybrid library CCNG1
T9 chain: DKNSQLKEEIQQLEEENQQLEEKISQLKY

P7mS = target: T10, P7mS; assay: two-hybrid library CCNG1
T10 chain: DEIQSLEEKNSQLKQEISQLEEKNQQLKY

P8mS = target: T11, P8mS; assay: two-hybrid library CCNG1
T11 chain: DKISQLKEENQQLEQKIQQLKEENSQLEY

P9mS = target: T12, P9mS; assay: two-hybrid library CCNG1
T12 chain: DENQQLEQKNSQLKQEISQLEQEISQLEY

4H1831-bH = target: T13, 4H1831-bH; assay: two-hybrid library CCNG1
T13 chain: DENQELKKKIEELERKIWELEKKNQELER

4H2586-bH = target: T14, 4H2586-bH; assay: two-hybrid library CCNG1
T14 chain: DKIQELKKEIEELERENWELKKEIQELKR

4H2627-bH = target: T15, 4H2627-bH; assay: two-hybrid library CCNG1
T15 chain: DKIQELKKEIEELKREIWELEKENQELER

4H2673-bH = target: T16, 4H2673-bH; assay: two-hybrid library CCNG1
T16 chain: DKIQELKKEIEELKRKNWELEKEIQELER

4H2702-bH = target: T17, 4H2702-bH; assay: two-hybrid library CCNG1
T17 chain: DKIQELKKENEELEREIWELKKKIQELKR

4H3010-bH = target: T18, 4H3010-bH; assay: two-hybrid library CCNG1
T18 chain: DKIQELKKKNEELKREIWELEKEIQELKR

4H3112-bH = target: T19, 4H3112-bH; assay: two-hybrid library CCNG1
T19 chain: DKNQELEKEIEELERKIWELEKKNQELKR

4H3427-bH = target: T20, 4H3427-bH; assay: two-hybrid library CCNG1
T20 chain: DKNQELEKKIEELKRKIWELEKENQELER

4H346-bH = target: T21, 4H346-bH; assay: two-hybrid library CCNG1
T21 chain: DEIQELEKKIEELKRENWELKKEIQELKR

4H3926-bH = target: T22, 4H3926-bH; assay: two-hybrid library CCNG1
T22 chain: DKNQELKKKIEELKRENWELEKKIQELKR

4H4073-bH = target: T23, 4H4073-bH; assay: two-hybrid library CCNG1
T23 chain: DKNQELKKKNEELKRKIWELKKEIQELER

4H457-bH = target: T24, 4H457-bH; assay: two-hybrid library CCNG1
T24 chain: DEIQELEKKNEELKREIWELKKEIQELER

4H575-bH = target: T25, 4H575-bH; assay: two-hybrid library CCNG1
T25 chain: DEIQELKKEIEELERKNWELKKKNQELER

4H626-bH = target: T26, 4H626-bH; assay: two-hybrid library CCNG1
T26 chain: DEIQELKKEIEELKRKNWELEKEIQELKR

4H683-bH = target: T27, 4H683-bH; assay: two-hybrid library CCNG1
T27 chain: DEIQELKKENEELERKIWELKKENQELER

4H754-bH = target: T28, 4H754-bH; assay: two-hybrid library CCNG1
T28 chain: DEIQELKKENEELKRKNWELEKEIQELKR

4H780-bH = target: T29, 4H780-bH; assay: two-hybrid library CCNG1
T29 chain: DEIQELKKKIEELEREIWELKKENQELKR

4H797-bH = target: T30, 4H797-bH; assay: two-hybrid library CCNG1
T30 chain: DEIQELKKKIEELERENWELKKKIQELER

4H855-bH = target: T31, 4H855-bH; assay: two-hybrid library CCNG1
T31 chain: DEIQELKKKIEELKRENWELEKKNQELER

4H918-bH = target: T32, 4H918-bH; assay: two-hybrid library CCNG1
T32 chain: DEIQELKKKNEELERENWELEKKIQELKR

4H953-bH = target: T33, 4H953-bH; assay: two-hybrid library CCNG1
T33 chain: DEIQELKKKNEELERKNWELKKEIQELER

4H968-bH = target: T34, 4H968-bH; assay: two-hybrid library CCNG1
T34 chain: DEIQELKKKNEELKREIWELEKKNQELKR

O4 = target: T35, O4; assay: two-hybrid library CCNG1
T35 chain: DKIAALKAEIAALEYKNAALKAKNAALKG

4H3354-AA = target: T36, 4H3354-AA; assay: two-hybrid library CCmax
T36 chain: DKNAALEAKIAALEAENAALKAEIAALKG

4H3427-AA = target: T37, 4H3427-AA; assay: two-hybrid library CCmax; details: mean of both orientations
T37 chain: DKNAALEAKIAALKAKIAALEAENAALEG

4H3438-AA = target: T38, 4H3438-AA; assay: two-hybrid library CCmax
T38 chain: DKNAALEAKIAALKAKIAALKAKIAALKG

4H3782-AA = target: T39, 4H3782-AA; assay: two-hybrid library CCmax; details: mean of both orientations
T39 chain: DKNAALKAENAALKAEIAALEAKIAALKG

4H3855-AA = target: T40, 4H3855-AA; assay: two-hybrid library CCmax; details: mean of both orientations
T40 chain: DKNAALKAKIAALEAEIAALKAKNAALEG

4H4001-AA = target: T41, 4H4001-AA; assay: two-hybrid library CCmax; details: mean of both orientations
T41 chain: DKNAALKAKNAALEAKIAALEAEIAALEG

4H568-AA = target: T42, 4H568-AA; assay: two-hybrid library CCmax; details: mean of both orientations
T42 chain: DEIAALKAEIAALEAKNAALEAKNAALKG

4H687-AA = target: T43, 4H687-AA; assay: two-hybrid library CCmax; details: mean of both orientations
T43 chain: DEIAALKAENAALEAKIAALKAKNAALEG

4H717-AA = target: T44, 4H717-AA; assay: two-hybrid library CCmax; details: mean of both orientations
T44 chain: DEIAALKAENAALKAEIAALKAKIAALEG

4H797-AA = target: T45, 4H797-AA; assay: two-hybrid library CCmax; details: mean of both orientations
T45 chain: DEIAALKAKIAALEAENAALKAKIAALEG

4H883-AA = target: T46, 4H883-AA; assay: two-hybrid library CCmax; details: mean of both orientations
T46 chain: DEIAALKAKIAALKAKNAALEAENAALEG

4H918-AA = target: T47, 4H918-AA; assay: two-hybrid library CCmax; details: mean of both orientations
T47 chain: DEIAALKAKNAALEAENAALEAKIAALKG

4H953-AA = target: T48, 4H953-AA; assay: two-hybrid library CCmax; details: mean of both orientations
T48 chain: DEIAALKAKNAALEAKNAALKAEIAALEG

4H967-AA = target: T49, 4H967-AA; assay: two-hybrid library CCmax; details: mean of both orientations
T49 chain: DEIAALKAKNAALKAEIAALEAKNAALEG

Binder: DKIQELKKKNEELKRKNWELKKKIQELKR [P2A-bH]
- interaction score (P3A-bH): -1.95
- interaction score (P4A-bH): 0.539
- interaction score (P5A-bH): -1.23
- interaction score (P6A-bH): -0.802
- interaction score (P7A-bH): -0.557
- interaction score (P8A-bH): 0.132
- interaction score (P9A-bH): -1.02

Binder: DENSQLEEKISQLKQKNSQLKEEIQQLEY [P5mS]
- interaction score (P5mS): -1.66
- interaction score (P6mS): -0.081
- interaction score (P7mS): -1.25
- interaction score (P8mS): -1.17
- interaction score (P9mS): -2.82

Binder: DENQELKKKIEELERKIWELEKKNQELER [4H1831-bH]
- interaction score (4H1831-bH): -0.611
- interaction score (4H2586-bH): -1.54
- interaction score (4H2627-bH): 1.87
- interaction score (4H2673-bH): 0.349
- interaction score (4H2702-bH): 0.297
- interaction score (4H3010-bH): 1.32
- interaction score (4H3112-bH): -0.582
- interaction score (4H3427-bH): 0.584
- interaction score (4H346-bH): 0.11
- interaction score (4H3926-bH): -0.549
- interaction score (4H4073-bH): -0.216
- interaction score (4H457-bH): 0.724
- interaction score (4H575-bH): -1.81
- interaction score (4H626-bH): 1.02
- interaction score (4H683-bH): -0.934
- interaction score (4H754-bH): 0.0674
- interaction score (4H780-bH): 0.511
- interaction score (4H797-bH): -1.12
- interaction score (4H855-bH): -0.184
- interaction score (4H918-bH): -0.221
- interaction score (4H953-bH): -0.749
- interaction score (4H968-bH): -2.37
- interaction score (O4): -1.48

Binder: DKNAALEAKIAALEAENAALKAEIAALKG [4H3354-AA]
- interaction score (4H3354-AA): 2.03
- interaction score (4H3427-AA): -1.79
- interaction score (4H3438-AA): -0.709
- interaction score (4H3782-AA): -1.79
- interaction score (4H3855-AA): -1.85
- interaction score (4H4001-AA): -1.64
- interaction score (4H568-AA): -1.54
- interaction score (4H687-AA): -1.69
- interaction score (4H717-AA): -1.69
- interaction score (4H797-AA): -0.991
- interaction score (4H883-AA): -2
- interaction score (4H918-AA): -1.56
- interaction score (4H953-AA): -1.6
- interaction score (4H967-AA): -1.42
